Results taken from the DeepSol protein solubility set.

test: soluble on expression in E. coli; label from the status in PepcDB or PDB records

Soluble on expression in E. coli, not soluble:
MGSDKIHHHHHHMIGHSEVIRCFGMSGKVYFFNDSGNIQKGVHDLPPKGLACFVKIKNMMMQAKPAEVSMVDALVDPWLGAIGRDFEGYRNHCRRVFIFACTLAGAEGESREKIAIAAAFHDLGIWTDNTFDYLEPSKRLASAYLASTSKAEWTDEIKAMIEQHHKVTPWSCKPGWLVEPFRKADWIDVTLGARNFELNRSYIREIQRRYPNAGFHATLARLSFERMKTHPKDPLPMMRW, MEPMHKINKVEVRNLQIEDYIQLSQSFKRVYADKDVFWTHEQIETLIRIFPEGQVVTVVDDKIVGCALSIIVDYDMVKGDHTYAKVTGNETFCTHNPEGNILYGIEVFIHPDYRGLRLARRMYEYRKELCEKLNLKAIMFGGRIPNYYKYADTMRPKEYLDKVRSREIYDPVLTFQLSNDFHVRRVMKNYLP, MGHHHHHHSHAKGKSAGLVKATGRNMEQFQVSVSVAPNAKITFELVYEELLKRRLGVYELLLKVRPQQLVKHLQMDIHIFEPQGISFLETESTFMTNQLVDALTTWQNKTKAHIRFKPTLSQQQKSPEQQETVLDGNLIIRYDVDRAISGGSIQIENGYFVHYFAPEGLTTMPKNVVFVIDKSGSMSGRKIQQTREALIKILDDLSPRDQFNLIVFSTEATQWRPSLVPASAENVNKARSFAAGIQALGGTNINDAMLMAVQLLDSSNQEERLPEGSVSLIILLTDGDPTVGETNPR, MGSDKIHHHHHHMSIINDEKLRKYVPEERLDKVKERLEILDTYDLSYITSNFIWKGRRFSPEQVWPIKIYYGKADRELAEKIEKEFRRFVALTIVFPKRLFTASGAVDLYWHFLILHTKEYEKFSKSVWGIPRYDNVLLKKLLNNDDNSFRLRFNLKPDNVNEITILPKKALESLDDKTLDRVLMLERLDLSPISENLLHTIDEFKFVPEQRFPLIAHFGKLDNNIVKRIELEFKKWMALNIAYGGKELNYAAPSGVVDMYFHLFILHTILYKQFCEIFFGKFIHHPLGELF, MGSDKIHHHHHHMSEQMFEGWNGAIVVTPETVKIIYGNQHSKGEGEKEITLESIQSIELKKPRFLAQGYIQLILEGSKKKKGALAAMGDEHSIMINDEAQYKQFEQAKELIELFQHEQKLVSEQNEKGEGWREDVFKGGNGTLVVTPETIKIIYSWLHTRGRGEKTINIRSISSIQLKEPAVVAGYIQFTFQGSIENQSRSSFSAIDDQNTIAISNKHQFEDFKRAKALIESYQNQLYAPQIQSSSTSGADELKKYKELLDDGIISEEEFNAKKKQILGI, MTFTGLPPEDVPALMTGAVIPHPSVAGRADAYLPSPCIQNHAANLAFLPDGTLSCVWFGGTMEGMRDISIYMSRLPPGSGRWSEPEKMSDDPEKSEQNPLIFNAPDGKTWLLYTSQTSGNQDGSIVKCRISDDGGKTFGPVQILCDSPGTFVRQQIVVNDRGDWLLPIFRCVGLEGQRWSGDADTAAVLISRDGGASWQMRDIPDSIGAVHMNILPLGGCEMIAFYRNRFAETILSSRSADGGETWSPPEPTELPNNNSSIQATVLDNGGIAMVYNHSNATMSDARRQSLYDEIEGDECGENAAVVADAGRKAVWGVPRAPLSLAISRDGGRTFPHRIDLDTGDGFCLSNNSKDSLNREFSYPSVIEGSDGTLHVAYTYYRRALEHHHHHH

Soluble on expression in E. coli, soluble:
MHSFPPLLLLLFWGVVSHSFPATLETQEQDVDLVQKYLEKYYNLKNDGRQVEKRRNSGPVVEKLKQMQEFFGLKVTGKPDAETLKVMKQPRCGVPDVAQFVLTEGNPRWEQTHLTYRIENYTPDLPRADVDHAIEKAFQLWSNVTPLTFTKVSEGQADIMISFVRGDHRDNSPFDGPGGNLAHAFQPGPGIGGDAHFDEDERWTNNFREYNLHRVAAHELGHSLGLSHSTDIGALMYPSYTFSGDVQLAQDDIDGIQAIYGRSQNPVQPIGPQTPKACDSKLTFDAITTIRGEVMFFKDRFYMRTNPFYPEVELNFISVFWPQLPNGLEAAYEFADRDEVRFFKGNKYWAVQGQNVLHGYPKDIYSSFGFPRTVKHIDAALSEENTGKTYFFVANKYWRYDEYKRSMDPGYPKMIAHDFPGIGHKVDAVFMKDGFFYFFHGTRQYKFDPKTKRILTLQKANSWFNCRKN, MKITHCKLKKKVQKELLRFFVLEVTARSAADILGIHPNSAVLFYRKIRTVINHHLALAADEVFEGPVEPDESDFGGRRKGRRGRGAAGKVVVFGILKRNGRGYTVVVDNAKSETLLPVIKKKIMPDSIVYTDSLSSCDKLDVSGFIHYRINHSKEFADRQNHINGIENFWNQAKRVLRKYNGIDRKSFPLFLKECEFRFNFGTPSQQLKILRDWCGILEHHHHHH, MGYASKLALKICLASLCLFSALGAEHLEQKRNYIYKGEEAYNNKEYERAASFYKSAIKNGEPLAYVLLGIMYENGRGVPKDEKKAAEYFQKAVDNDIPRGYNNLGVMYKEGRGVPKDEKKAVEYFRIATEKGYTNAYINLGIMYMEGRGVPSNYVKATECFRKAMHKGNVEAYILLGDIYYSGNDQLGIEPDKDKAIVYYKMAADMSSSRAYEGLAESYQYGLGVEKDKKKAEEYMQKACDFDIDKNCKKKNTSSRLEHHHHHH, MYDKLLPMERIHIEVFEPFNGEAIEGKYSYVLLCRDYRSSFMWLLPLKSTKFKHLIPVVSSLFLTFARVPIFVTSSTLDKDDLYDICEEIASKYGLRIGLGLKSSARFHTGGILCIQYALNSYKKECLADWGKCLRYGPYRFNRRRNKRTKRK, MQSNKAFNLEKQNHTPRKHHQHHHQQHHQQQQQQQQQQPPPPIPANGQQASSQNEGLTIDLKNFRKPGEKTFTQRSRLFVGNLPPDITEEEMRKLFEKYGKAGEVFIHKDKGFGFIRLETRTLAEIAKVELDNMPLRGKQLRVRFACHSASLTVRNLPQYVSNELLEEAFSVFGQVERAVVIVDDRGRPSGKGIVEFSGKPAARKALDRCSEGSFLLTTFPRPVTVEPMDQLDDEEGLPEKLVIKNQQFHKEREQPPRFAQPGSFEYEYAMRWKALIEMEKQQQDQVDRNIKEAREKLEMEMEAARHEHQVMLMRQDLMRRQEELRRMEELHNQEVQKRKQLELRQEEERRRREEEMRRQQEEMMRRQQEGFKGTFPDAREQEIRMGQMAMGGAMGINNRGAMPPAPVPPGTPAPPGPATMMPDGTLGLTPPTTERFGQAATMEGIGAIGGTPPAFNRPAPGAEFAPNKRRRY, GMSSNVSHFEGTRPVADQQRFDTEALEAWMRQHVEGFAGPLSVEQFKGGQSNPTFKLVTPGQTYVMRAKPGPKSKLLPSAHAIEREYRVMDALAGTDVPVAKMYALCEDESVIGRAFYIMEFVSGRVLWDQSLPGMSPAERTAIYDEMNRVIAAMHTVDYQAIGLGDYGKPGNYFQRQIERWTKQYKLSETESIPAMDSLMDWLPQHIPQEDADLTSIVHGDYRLDNLMFHPTEPRVLAVLDWELSTLGHPMGDFGYHCMSWHIAPGQFRGIAGLDHAALGIPDEASYRKLYEQRTGRPITGDWNFYLAFSMFRIAGILQGIMKRVVDGTASSAQALDAGKRARPMAEMGWEYAKKAKQ, MSLDLKFTDFLDPRVKSSLGEEEIVFPPYDANQLRDILQHRSDVAFKADALSDDVLPLCAAFAAQEHGDARRALDLLRTAGELAERDQAENVTEDHVRRAQDKIELDRVVEVVRTLPTQSKLVLYAILLLEDNGVHNVNTGEVYNIYKTLCDELDADVEGHHHHHH
